# Source: the Human Domainome abundance scans (Beltran et al. 2025)
# ± gives the uncertainty stated by the source.
# B1: Formin-binding protein 4, residues 593 to 636; numbered along this chain, Q8N3X1 (parent)
# chain: EINATPKGWSCHWDRDHRRYFYVNEQSGESQWEFPDGEEEEEES
# Variants of: B1
# Experiment: abundance fitness (aPCA) (normalised: wild type 0, dead -1); higher = more abundant; growth selection in yeast, the domain comes from the species named
# Conditions: Homo sapiens
row,Variant,abundance fitness
1,EINATPKGWSCHWDRDHRRYFYVNEQSRESQWEFPDGEEEEEES,-0.438 ± 0.079
2,EINATPKGWSCHWDRDHRRYFYVNEQSSESQWEFPDGEEEEEES,-0.553 ± 0.075
3,EINATPKGWSCHWDRDHRRYFYVNEQSTESQWEFPDGEEEEEES,-0.728 ± 0.079
4,EINATPKGWSCHWDRDHRRYFYVNEQSVESQWEFPDGEEEEEES,-0.932 ± 0.085
5,EINATPKGWSCHWDRDHRRYFYVNEQSWESQWEFPDGEEEEEES,-1.14 ± 0.12
6,EINATPKGWSCHWDRDHRRYFYVNEQSGASQWEFPDGEEEEEES,-0.052 ± 0.081
7,EINATPKGWSCHWDRDHRRYFYVNEQSGCSQWEFPDGEEEEEES,-0.575 ± 0.18
8,EINATPKGWSCHWDRDHRRYFYVNEQSGDSQWEFPDGEEEEEES,-0.388 ± 0.26
9,EINATPKGWSCHWDRDHRRYFYVNEQSGGSQWEFPDGEEEEEES,-0.253 ± 0.07
10,EINATPKGWSCHWDRDHRRYFYVNEQSGHSQWEFPDGEEEEEES,-0.016 ± 0.094
11,EINATPKGWSCHWDRDHRRYFYVNEQSGISQWEFPDGEEEEEES,-0.062 ± 0.13
12,EINATPKGWSCHWDRDHRRYFYVNEQSGLSQWEFPDGEEEEEES,-0.129 ± 0.094
13,EINATPKGWSCHWDRDHRRYFYVNEQSGMSQWEFPDGEEEEEES,-0.058 ± 0.096
14,EINATPKGWSCHWDRDHRRYFYVNEQSGNSQWEFPDGEEEEEES,-0.421 ± 0.31
15,EINATPKGWSCHWDRDHRRYFYVNEQSGPSQWEFPDGEEEEEES,-0.883 ± 0.12
16,EINATPKGWSCHWDRDHRRYFYVNEQSGQSQWEFPDGEEEEEES,-0.027 ± 0.079
17,EINATPKGWSCHWDRDHRRYFYVNEQSGTSQWEFPDGEEEEEES,-0.269 ± 0.3
18,EINATPKGWSCHWDRDHRRYFYVNEQSGVSQWEFPDGEEEEEES,-0.126 ± 0.079
19,EINATPKGWSCHWDRDHRRYFYVNEQSGWSQWEFPDGEEEEEES,-0.559 ± 0.093
20,EINATPKGWSCHWDRDHRRYFYVNEQSGEAQWEFPDGEEEEEES,0.014 ± 0.071

row,Variant,abundance fitness
1,EINATPKGWSCHWDRDHRRYFYVNEQSGEEQWEFPDGEEEEEES,-0.04 ± 0.084
2,EINATPKGWSCHWDRDHRRYFYVNEQSGEFQWEFPDGEEEEEES,-0.066 ± 0.36
3,EINATPKGWSCHWDRDHRRYFYVNEQSGEGQWEFPDGEEEEEES,-0.023 ± 0.078
4,EINATPKGWSCHWDRDHRRYFYVNEQSGEHQWEFPDGEEEEEES,-0.354 ± 0.17
5,EINATPKGWSCHWDRDHRRYFYVNEQSGEIQWEFPDGEEEEEES,0.082 ± 0.13
6,EINATPKGWSCHWDRDHRRYFYVNEQSGEKQWEFPDGEEEEEES,0.274 ± 0.16
7,EINATPKGWSCHWDRDHRRYFYVNEQSGELQWEFPDGEEEEEES,-0.03 ± 0.1
8,EINATPKGWSCHWDRDHRRYFYVNEQSGEMQWEFPDGEEEEEES,0.04 ± 0.17
9,EINATPKGWSCHWDRDHRRYFYVNEQSGEPQWEFPDGEEEEEES,-0.174 ± 0.083
10,EINATPKGWSCHWDRDHRRYFYVNEQSGEQQWEFPDGEEEEEES,0.15 ± 0.12
11,EINATPKGWSCHWDRDHRRYFYVNEQSGERQWEFPDGEEEEEES,0.27 ± 0.081
12,EINATPKGWSCHWDRDHRRYFYVNEQSGETQWEFPDGEEEEEES,0.067 ± 0.083
13,EINATPKGWSCHWDRDHRRYFYVNEQSGEVQWEFPDGEEEEEES,0.094 ± 0.072
14,EINATPKGWSCHWDRDHRRYFYVNEQSGEWQWEFPDGEEEEEES,0.02 ± 0.11
15,EINATPKGWSCHWDRDHRRYFYVNEQSGESAWEFPDGEEEEEES,-0.377 ± 0.065
16,EINATPKGWSCHWDRDHRRYFYVNEQSGESCWEFPDGEEEEEES,-0.129 ± 0.093
17,EINATPKGWSCHWDRDHRRYFYVNEQSGESEWEFPDGEEEEEES,-0.707 ± 0.081
18,EINATPKGWSCHWDRDHRRYFYVNEQSGESFWEFPDGEEEEEES,-0.416 ± 0.082
19,EINATPKGWSCHWDRDHRRYFYVNEQSGESHWEFPDGEEEEEES,-0.47 ± 0.087
20,EINATPKGWSCHWDRDHRRYFYVNEQSGESIWEFPDGEEEEEES,-0.472 ± 0.1

row,Variant,abundance fitness
1,EINATPKGWSCHWDRDHRRYFYVNEQSGESKWEFPDGEEEEEES,-0.32 ± 0.11
2,EINATPKGWSCHWDRDHRRYFYVNEQSGESLWEFPDGEEEEEES,-0.383 ± 0.07
3,EINATPKGWSCHWDRDHRRYFYVNEQSGESMWEFPDGEEEEEES,-0.451 ± 0.12
4,EINATPKGWSCHWDRDHRRYFYVNEQSGESNWEFPDGEEEEEES,-0.742 ± 0.33
5,EINATPKGWSCHWDRDHRRYFYVNEQSGESPWEFPDGEEEEEES,-0.819 ± 0.18
6,EINATPKGWSCHWDRDHRRYFYVNEQSGESRWEFPDGEEEEEES,-0.075 ± 0.059
7,EINATPKGWSCHWDRDHRRYFYVNEQSGESSWEFPDGEEEEEES,-0.293 ± 0.087
8,EINATPKGWSCHWDRDHRRYFYVNEQSGESTWEFPDGEEEEEES,-0.115 ± 0.078
9,EINATPKGWSCHWDRDHRRYFYVNEQSGESVWEFPDGEEEEEES,-0.153 ± 0.061
10,EINATPKGWSCHWDRDHRRYFYVNEQSGESWWEFPDGEEEEEES,-0.613 ± 0.062
11,EINATPKGWSCHWDRDHRRYFYVNEQSGESQAEFPDGEEEEEES,-0.226 ± 0.079
12,EINATPKGWSCHWDRDHRRYFYVNEQSGESQCEFPDGEEEEEES,-0.305 ± 0.11
13,EINATPKGWSCHWDRDHRRYFYVNEQSGESQDEFPDGEEEEEES,-0.364 ± 0.14
14,EINATPKGWSCHWDRDHRRYFYVNEQSGESQEEFPDGEEEEEES,-0.273 ± 0.086
15,EINATPKGWSCHWDRDHRRYFYVNEQSGESQFEFPDGEEEEEES,0.047 ± 0.15
16,EINATPKGWSCHWDRDHRRYFYVNEQSGESQGEFPDGEEEEEES,-0.28 ± 0.061
17,EINATPKGWSCHWDRDHRRYFYVNEQSGESQHEFPDGEEEEEES,-0.157 ± 0.25
18,EINATPKGWSCHWDRDHRRYFYVNEQSGESQIEFPDGEEEEEES,0.001 ± 0.13
